Experimental findings from US20030017568A1, “Smooth muscle myosin phosphatase associated kinase” (priority 2001, published 2003) are described below.

The assay deals with permealized rabbit longitudinal ileum smooth muscle strips. Nature of the assay: Force in permeabilized rabbit longitudinal ileum smooth muscle strips (Ca2+-sensitization). How it is done: Instead, when rN-ZIP^1-320 kinase is added a 40% increase in muscular force is produced at the same submaximal calcium concentration.

B1: rN-ZIP^1-320 kinase: recombinant 38 kDa GST-fusion protein of the N-terminal region (1-320) of ZIP kinase, expressed in E. coli, constitutively active (protein, UniProt O43293 1-320, looked up, fragment)
chain: MSTFRQEDVEDHYEMGEELGSGQFAIVRKCRQKGTGKEYAAKFIKKRRLSSSRRGVSREEIEREVNILREIRHPNIITLHDIFENKTDVVLILELVSGGELFDFLAEKESLTEDEATQFLKQILDGVHYLHSKRIAHFDLKPENIMLLDKNVPNPRIKLIDFGIAHKIEAGNEFKNIFGTPEFVAPEIVNYEPLGLEADMWSIGVITYILLSGASPFLGETKQETLTNISAVNYDFDEEYFSNTSELAKDFIRRLLVKDPKRRMTIAQSLEHSWIKAIRRRNVRGEDSGRKPERRRLKTTRLKEYTIKSHSSLPPNNSYA
modifications: GST fusion
On to B1, for which the “Increase in muscular force” value (at the same submaximal calcium concentration) came out at 40%. In addition, the “Contraction in the absence of calcium” value (permeabilized ileum strips, no calcium) is given as “does not cause contraction”.
